Values of other authors as cited in patent US5494894A, “Agent for the regulation of the appetite or a sleeping agent” (Erlanson-Albertsson; Charlotte, priority 1986, dated 1996).

Tested on: patients
Settings: administered intravenously; cited from earlier work

B1: cholocystokinin (peptide, UniProt P06307 21-115, looked up)
Cholecystokinin: QPVPPADPAGSGLQRAEEAPRRQLRVSQRTDGESRAHLGALLARYIQQARKAPSGRMSIVKNLQNLDPSHRISDRDYMGWMDFGRRSAEEYEYPS
modifications: Cholecystokinin
notes: hormone which stimulates the secretion of pancreatic enzymes
- Feeling of satiety: earlier feeling of satiety
